For orientation: Kd means a measure of binding affinity in units of concentration.

Consider 1 substance from PMC9898101.

The subject of the data set is MBP-ERS WT (human). In words: EMSA. To be noted: 1 mM Mg2+; 5 ug/mL heparin (unit prefix not given); none (in vitro transcript); 25 mM Tris-HCl pH 7.5, 50 mM NaCl, 1 mM MgCl2, 1 mM DTT, 5 ug/mL heparin (prefix not given), 10 nM 32P-tRNA, room temperature 30 min; native 4-16% gel on …. (A gel shift assay detects complexes by their altered migration in electrophoresis.)

Regarding human tRNAGlu(TTC), the dissociation constant Kd was 516 nM.
